[ ]: non-standard residue; d: D form. pGlu = O=C1CC[C@@H](C(=O)O)N1
B1: ^1 F1: recombinant first type 1 module of fibronectin, amino acids 1-61 (protein)
chain: [pGlu]AQQMVQPQSPVAVSQSKPGCYDNGKHYQINQQWERTYLGNALVCTCYGGSRGFNCESKPE
modifications: not fully specified; also: major species lacks N-terminal Gln-Ala, its new N-terminal Gln3 is pyroglutamate
B2: tPA preparation of Husain et al.: high-affinity plasminogen activator preparation of Husain et al. (1981) (protein, UniProt P00750 36-562, looked up)
Tissue-type plasminogen …: SYQVICRDEKTQMIYQQHQSWLRPVLRSNRVEYCWCNSGRAQCHSVPVKSCSEPRCFNGGTCQQALYFSDFVCQCPEGFAGKCCEIDTRATCYEDQGISYRGTWSTAESGAECTNWNSSALAQKPYSGRRPDAIRLGLGNHNYCRNPDRDSKPWCYVFKAGKYSSEFCSTPACSEGNSDCYFGNGSAYRGTHSLTESGASCLPWNSMILIGKVYTAQNPSAQALGLGKHNYCRNPDGDAKPWCHVLKNRRLTWEYCDVPSCSTCGLRQYSQPQFRIKGGLFADIASHPWQAAIFAKHRRSPGERFLCGGILISSCWILSAAHCFQERFPPHHLTVILGRTYRVVPGEEEQKFEVEKYIVHKEFDDDTYDNDIALLQLKSDSSRCAQESSVVRTVCLPPADLQLPDWTECELSGYGKHEALSPFYSERLKEAHVRLYPSSRCTSQHLLNRTVTDNMLCAGDTRSGGPQANLHDACQGDSGGPLVCLNDGRMTLVGIISWGLGCGQKDVPGVYTKVTNYLDWIRDNMRP
B3: ^1 F1.^2 F1: recombinant fibronectin module pair, first and second type 1 modules, amino acids 1-106; negative control (protein)
chain: QAQQMVQPQSPVAVSQSKPGCYDNGKHYQINQQWERTYLGNALVCTCYGGSRGFNCESKPEAEETCFDKYTGNTYRVGDTYERPKDSMIWDCTCIGAGRGRISCTI
modifications: N-terminal pyroglutamate; the major species lacks the NH2-terminal Gln-Ala dipeptide and its new N-terminal Gln is also pyroglutamate
notes: recombinant fibronectin module pair, first and second type 1 modules, amino acids 1-106; negative control

Assays:
[1] = system: fibrin; experiment: ELISA: competitive inhibition of fibronectin binding to fibrin by type 1 recombinant modules; conditions: up to 5,000-50,000 molar excess compared to Fn
Procedure: Fibrin-binding activity was also assessed by an ELISA. Fn was reacted with fibrin-coated microtiter plates and bound Fn was determined by incubation with a polyclonal rabbit anti-Fn antiserum followed by alkaline phosphatase-labeled anti-rabbit Ig. […] Thus, on a mole-per-mole basis, assuming complete attachment of all the fibrinogen applied to the polystyrene plate, total proteolytic conversion to fibrin, and accessibility of the binding sites, 0.8 moles of Fn per mole of fibrin were required to achieve maximum binding (assuming a molecular weight of 340 kDa for the fibrin hexamer and 440 kDa for the Fn dimer).
The recombinant Fn modules were used to inhibit the binding of Fn to the fibrin-coated microtiter plates. […] At this saturating concentration, the binding of Fn to fibrin was inhibited by 70%.

[2] = system: fibrin; conditions: Husain et al. 1981; cited from earlier work
[3] = system: fibrin; experiment: Fibrin-SEPHAROSE affinity chromatography (binding and elution); parameters: species or system bovine
Procedure: Bovine fibrinogen was cross-linked to CNBr-activated SEPHAROSE™ (5 mg/ml beads) according to the manufacturer's instructions. Coupled fibrinogen was subsequently converted to fibrin by incubation with human thrombin to a final concentration of 5 NIH units/ml and 100 K.I. (kallikrein inhibitory) units/ml of aprotinin (in 0.05M Tris-HCI buffer, pH 7.6, containing 0.1M NaCl and 0.01M EDTA) for three hours, at room temperature (Gold, et al. (1983) Biochemistry 22, 4113-4119).
1.0M NaCl in 0.05M tris buffer, pH 8.0.
The fibrin-binding activity of the proteolytically derived 25.9 kDa fragment of Fn was determined by its ability to bind to a fibrin affinity matrix. […] FBB was used to equilibrate and wash the column. Following warming of the column to 22° C., the column was washed with FBB until absorbance at 280 nm (A280) was less than 0.01, and bound protein eluted with 0.05M Tris-HCl, 0.5M NaCl, 6M urea buffer, pH 7.6.
The module (500 μg/1.0 ml) was incubated for 4 hours (while rotating) at 4° C. in the presence of 1.0 ml fibrin-SEPHAROSE™ (5 mg fibrin/ml SEPHAROSE™ beads) equilibrated in […] Tris-HCl, 0.1M NaCl buffer, pH 7.6.
The 11 KDa peptide (50 μg/0.206 ml) was radiolabeled using the IODO-BEAD method (Pierce Chemical). The peptide was added to one IODO-BEAD in the presence of 100 μCi ^125 I (17.4 Ci/mg, New England Nuclear) and incubated on ice for 10 minutes. […]

[4] = system: fibrin; conditions: 0-10 μM competitor, biotinylated Fn 2.3 nM
Procedure: Since the anti-Fn detection system described for the ELISA above could not be used in Fn competition assays employing the intact Fn molecule or the 25.8 kDa proteolytic fragment, purified Fn was biotinylated using water soluble NHS-LC-Biotin (Pierce Chemm. Co.; according to the manufacturer's instructions) and binding to fibrin detected by alkaline phosphatase conjugated streptavidin (diluted 1/500 in FBBT/BSA) for 1 hour at 22° C., followed by the addition of p-nitrophenyl phosphate, as described above. To ensure that the biotinylation of the Fn had not affected its ability to bind to fibrin, fibrin-binding activity was tested by incubating increasing concentrations of biotinylated Fn (10-300 ng/0.1 ml FBB) with the fibrin-coated wells (200 ng) and detected (see FIG. 28A) using alkaline phosphatase-conjugated streptavidin and the reaction developed as described for Direct Elisa.
To compare the relative fibrin-binding affinities of the ^4 F1.^5 F1 recombinant module pair and the 25.9 kDa proteolytic fragment (^1 F1-^5 F1) with that of the native Fn molecule, these purified proteins were competed with biotinylated plasma Fn for binding to fibrin coated wells and the extent of inhibition of binding assessed by incubation with alkaline phosphatase-conjugated streptavidin. […] Biotinylated Fn (100 ng/0.1 ml FBB: 2.3 nM) was combined with increasing concentrations (0-10 μM) of either unlabeled Fn, the 25.9 kDa proteolytic fragment, or the separate ^4 F1.^5 F1, and ^10 F1 recombinant modules and incubated with the fibrin-coated microtiter wells for 1 hour at 22° C. […] Bound biotinylated Fn was quantitated as described above.

Row | Molecule | inhibition of the binding of Fn to fibrin (non-binding modules) [1] [%] | arginine concentration eluting from solid phase fibrin [2] [mM] | % of protein that did not bind to fibrin-Sepharose (unbound fraction) [3] [%] | binding to fibrin-Sepharose [3] | inhibition of biotinylated Fn binding (non-fibrin-binding modules) [4] [%]
1 | B1 | < 20 |  |  |  | 
2 | B2 |  | 0.2 |  |  | 
3 | B3 | < 20 |  | ~100 | none was present | 15
